What was measured:
[1] = molecular target: T1, hZFY full-length (13-finger construct) (human, UniProt P08048 408-768); experiment: fluorescence anisotropy dissociation
T1 sequence: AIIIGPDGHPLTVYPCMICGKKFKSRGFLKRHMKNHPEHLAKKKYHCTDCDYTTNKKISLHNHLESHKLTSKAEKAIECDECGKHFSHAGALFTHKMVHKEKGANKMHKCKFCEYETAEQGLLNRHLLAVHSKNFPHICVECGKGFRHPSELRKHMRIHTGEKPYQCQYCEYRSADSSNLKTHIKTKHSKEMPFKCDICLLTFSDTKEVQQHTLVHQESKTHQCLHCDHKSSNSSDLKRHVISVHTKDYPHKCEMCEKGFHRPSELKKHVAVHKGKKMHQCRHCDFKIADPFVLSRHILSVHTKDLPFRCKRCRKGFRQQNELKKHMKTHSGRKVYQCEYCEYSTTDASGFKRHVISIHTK

[2] = molecular target: T1, hZFY full-length (13-finger construct); experiment: fluorescence anisotropy dissociation; remark: listed apart in the source

B1: S.S.S. (long) FAM probe (dsDNA)
DNA 1: ACCTGGCCTAGTCGTTTTTGAGATCTTCATCAATTGCCGCATC
DNA 2: GATGCGGCAATTGATGAAGATCTCAAAAACGACTAGGCCAGGT
Question: Does B1 bind [1]?
Answer: binds

B2: S.S.N. FAM probe (dsDNA)
DNA 1: ACCTGGCCTAGTCGTTGCCCAGAT
DNA 2: ATCTGGGCAACGACTAGGCCAGGT
Question: With B2 as the binder, how does the binding signal [2] read?
Answer: ~2 fold shorter lifetime than SSS

Reference: paper doi:10.1101/637298
